Tests used:
Experiment in all cases: IEDB peptide-MHC binding, purified MHC/competitive/radioactivity; filed as Kd, often an IC50 or EC50 that approximates it; ≥ and ≤ were set here for values at or beyond the usual limits of such assays
[1] = target: HLA-A*03:01
[2] = target: HLA-A*11:01
[3] = target: HLA-A*31:01
[4] = target: HLA-A*33:01
[5] = target: HLA-A*68:01
[6] = source organism: Vaccinia virus WR
[7] = source organism: SARS coronavirus Tor2
[8] = source organism: Dengue virus 1 Brazil/97-11/1997
[9] = source organism: Dengue virus 2 Jamaica/1409/1983
[10] = source organism: Mammarenavirus whitewaterense
[11] = source organism: Mammarenavirus guanaritoense
[12] = source organism: Mammarenavirus lassaense

| Sequence | Kd [1, 6] | Kd [2, 6] | Kd [3, 6] | Kd [4, 6] | Kd [5, 6] | also measured |
| --- | --- | --- | --- | --- | --- | --- |
| LTQIFEVYWY | 990 nM | 348 nM | 934 nM | 1260 nM | 936 nM |  |
| SLLKTHRMCK |  |  |  |  |  | Kd [1, 7]: 13.4 nM; Kd [2, 7]: 39 nM; Kd [3, 7]: 452 nM; Kd [4, 7]: 6920 nM; Kd [5, 7]: ≥ 23300 nM |
| LSSKGLACY | 777 nM | 5490 nM | 13300 nM | ≥ 77700 nM | 8340 nM |  |
| CLEWLRAKR | 13100 nM | ≥ 49200 nM | 76.2 nM | 438 nM | 294 nM |  |
| CYLDTNIKM | ≥ 38600 nM | ≥ 77900 nM | 285 nM | 10900 nM | ≥ 25800 nM |  |
| DIVNGKECCY | ≥ 70100 nM | ≥ 69800 nM | ≥ 70000 nM | ≥ 70000 nM | ≥ 70200 nM |  |
| IISDMYDPR |  |  |  |  |  | Kd [1, 7]: 12800 nM; Kd [2, 7]: 122 nM; Kd [3, 7]: 325 nM; Kd [4, 7]: 1340 nM; Kd [5, 7]: 5.41 nM |
| VLLGSFGCK |  |  |  |  |  | Kd [1, 8]: 11.9 nM |
| CLAVHECFVK |  |  |  |  |  | Kd [1, 7]: 3050 nM; Kd [2, 7]: 3460 nM; Kd [3, 7]: 7510 nM; Kd [4, 7]: ≥ 61400 nM; Kd [5, 7]: 2270 nM |
| WIKDIMTSTR | 2200 nM | ≥ 21200 nM | 301 nM | 64 nM | 22.7 nM |  |
| QFVDINRNNK | 1880 nM | 662 nM | 4.52 nM | 763 nM | 171 nM |  |
| TAIKEVVMAY | 4430 nM | 1110 nM | 4280 nM | ≥ 21400 nM | 317 nM |  |
| TMRIYCSLFK | 1.18 nM | 0.21 nM | 1.78 nM | 93.5 nM | 26.7 nM |  |
| MFAVGLLFR |  |  |  |  |  | Kd [3, 8]: ≥ 66700 nM; Kd [4, 8]: 1.05 nM; Kd [5, 8]: 61.9 nM |
| TLITGNMSFR |  |  |  |  |  | Kd [4, 9]: 289 nM; Kd [5, 9]: 12.3 nM |
| KFYGPFVDR |  |  |  |  |  | Kd [1, 7]: 7680 nM; Kd [2, 7]: 1420 nM; Kd [3, 7]: 0.454 nM; Kd [4, 7]: 2040 nM; Kd [5, 7]: 3260 nM |
| WVLAYMLFTK |  |  |  |  |  | Kd [1, 7]: 24 nM; Kd [2, 7]: 32.7 nM; Kd [3, 7]: 1260 nM; Kd [4, 7]: 3950 nM; Kd [5, 7]: 104 nM |
| NSCSIGNVTR | ≥ 70100 nM | 890 nM | 34.1 nM | 16.1 nM | 6.73 nM |  |
| RNPYENVLYK |  |  |  |  |  | Kd [1, 10]: 2310 nM; Kd [2, 10]: 1500 nM; Kd [3, 10]: ≥ 28800 nM; Kd [4, 10]: ≥ 70000 nM; Kd [5, 10]: 3490 nM |

| Sequence | Kd [1, 6] | Kd [2, 6] | Kd [3, 6] | Kd [4, 6] | Kd [5, 6] | also measured |
| --- | --- | --- | --- | --- | --- | --- |
| EACYIYKSGK | 1080 nM | 1010 nM | 6450 nM | 11100 nM | 31.8 nM |  |
| ETLNEYKQLY | 15100 nM | 12400 nM | ≥ 41300 nM | 541 nM | 331 nM |  |
| ITDNGPMPY | 5020 nM | 7.31 nM | 1200 nM | 1600 nM | 2470 nM |  |
| GFAAYNRYR |  |  |  |  |  | Kd [1, 7]: 5710 nM; Kd [2, 7]: 6570 nM; Kd [3, 7]: 821 nM; Kd [4, 7]: 9670 nM; Kd [5, 7]: ≥ 27000 nM |
| DENKWKSAR |  |  |  |  |  | Kd [4, 9]: 306 nM |
| AFSLDVSEK |  |  |  |  |  | Kd [1, 7]: 12100 nM; Kd [2, 7]: 3550 nM; Kd [3, 7]: 12300 nM; Kd [4, 7]: ≥ 77700 nM; Kd [5, 7]: 6740 nM |
| SIPISELSR | ≥ 24600 nM | 125 nM | 3720 nM | 9740 nM | 11.2 nM |  |
| DMMFINSTCY | 821 nM | 10800 nM | 974 nM | 883 nM | 1910 nM |  |
| GALDTTSYR |  |  |  |  |  | Kd [1, 7]: 6600 nM; Kd [2, 7]: 26.3 nM; Kd [3, 7]: 86.5 nM; Kd [4, 7]: 1400 nM; Kd [5, 7]: 68.4 nM |
| KQMYKTPTLK |  |  |  |  |  | Kd [1, 7]: 2.31 nM; Kd [2, 7]: 17.5 nM; Kd [3, 7]: 95.3 nM; Kd [4, 7]: 11400 nM; Kd [5, 7]: 8220 nM |
| DIETAIRAGY | 2480 nM | 5720 nM | 19400 nM | 6790 nM | 1240 nM |  |
| FIKYVNGWVK | 1.76 nM | 1.56 nM | 115 nM | 111 nM | 1.13 nM |  |
| VLFVKKMLPK | 7.21 nM | 12 nM | 1730 nM | 13500 nM | 2350 nM |  |
| ACQEAVKLK |  |  |  |  |  | Kd ([4]; source organism: Mammarenavirus juninense): ≥ 77700 nM |
| LSYVIGLLPH |  |  |  |  |  | Kd [1, 11]: 2260 nM; Kd [2, 11]: ≥ 35800 nM; Kd [3, 11]: 8940 nM; Kd [4, 11]: ≥ 70000 nM; Kd [5, 11]: ≥ 70100 nM |
| KFQPESPAR |  |  |  |  |  | Kd ([3]; source organism: Dengue virus 4 Philippines/H241/1956): 64.2 nM |
| NKKPRICTR |  |  |  |  |  | Kd [4, 8]: 2970 nM |
| FLELKRGIY | ≥ 78000 nM | 10700 nM | 2200 nM | 4540 nM | 1880 nM |  |
| DSCNANGCEH |  |  |  |  |  | Kd [1, 12]: ≥ 70000 nM; Kd [2, 12]: ≥ 69700 nM; Kd [3, 12]: ≥ 70000 nM; Kd [4, 12]: ≥ 70000 nM; Kd [5, 12]: ≥ 70100 nM |

From the Immune Epitope Database (IEDB)
